In article PMC8092709 (Journal of Virology, 2021):

B1: HCoV-229E S1 (residues 1 to 536) with C-terminal Fc tag (Fc fusion)
chain: CQTTNGLNTSYSVCNGCVGYSENVFAVESGGYIPSDFAFNNWFLLTNTSSVVDGVVRSFQPLLLNCLWSVSGLRFTTGFVYFNGTGRGDCKGFSSDVLSDVIRYNLNFEENLRRGTILFKTSYGVVVFYCTNNTLVSGDAHIPFGTVLGNFYCFVNTTIGNETTSAFVGALPKTVREFVISRTGHFYINGYRYFTLGNVEAVNFNVTTAETTDFCTVALASYADVLVNVSQTSIANIIYCNSVINRLRCDQLSFDVPDGFYSTSPIQSVELPVSIVSLPVYHKHTFIVLYVDFKPQSGGGKCFNCYPAGVNITLANFNETKGPLCVDTSHFTTKYVAVYANVGRWSASINTGNCPFSFGKVNNFVKFGSVCFSLKDIPGGCAMPIVANWAYSKYYTIGSLYVSWSDGDGITGVPQPVEGVSSFMNVTLDKCTKYNIYDVSGVGVIRVSNDTFLNGITYTSTSGNLLGFKDVTKGTIYSITPCNPPDQLVVYQQAVVGAMLSENFTSYGFSNVVELPKFFYA
B2: HCoV-229E S1-RBD (residues 295 to 428) with C-terminal Fc tag (Fc fusion)
chain: VYHKHTFIVLYVDFKPQSGGGKCFNCYPAGVNITLANFNETKGPLCVDTSHFTTKYVAVYANVGRWSASINTGNCPFSFGKVNNFVKFGSVCFSLKDIPGGCAMPIVANWAYSKYYTIGSLYVSWSDGDGITGV

Molecular target: human aminopeptidase N (hAPN), residues 66 to 967 (human, UniProt P15144 66-967)
Test: SPR

Chain of human aminopeptidase N (hAPN), residues 66 to 967 (P15144 66-967): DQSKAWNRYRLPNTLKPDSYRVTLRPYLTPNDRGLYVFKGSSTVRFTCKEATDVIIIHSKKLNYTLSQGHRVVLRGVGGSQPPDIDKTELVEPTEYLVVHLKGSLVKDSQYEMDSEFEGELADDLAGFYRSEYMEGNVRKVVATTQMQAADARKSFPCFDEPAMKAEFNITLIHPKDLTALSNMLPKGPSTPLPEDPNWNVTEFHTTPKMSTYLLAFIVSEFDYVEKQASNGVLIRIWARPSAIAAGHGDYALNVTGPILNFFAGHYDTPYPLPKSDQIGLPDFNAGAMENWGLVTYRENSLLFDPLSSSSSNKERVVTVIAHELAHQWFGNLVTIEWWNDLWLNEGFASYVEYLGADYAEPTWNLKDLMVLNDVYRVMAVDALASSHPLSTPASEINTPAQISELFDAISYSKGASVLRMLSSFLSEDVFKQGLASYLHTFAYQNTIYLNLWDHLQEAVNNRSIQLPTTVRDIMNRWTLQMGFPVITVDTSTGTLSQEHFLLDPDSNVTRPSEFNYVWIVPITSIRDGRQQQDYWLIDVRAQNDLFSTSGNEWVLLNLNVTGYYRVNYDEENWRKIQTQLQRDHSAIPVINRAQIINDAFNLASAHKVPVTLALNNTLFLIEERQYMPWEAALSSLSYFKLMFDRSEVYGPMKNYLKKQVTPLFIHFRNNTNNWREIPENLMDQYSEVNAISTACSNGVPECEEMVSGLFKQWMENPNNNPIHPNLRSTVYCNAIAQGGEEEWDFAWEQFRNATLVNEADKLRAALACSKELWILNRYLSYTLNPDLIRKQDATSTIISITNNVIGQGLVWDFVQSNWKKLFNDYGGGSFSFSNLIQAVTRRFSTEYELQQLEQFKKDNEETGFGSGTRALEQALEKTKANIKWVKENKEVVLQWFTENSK

Row | Binder | Kd | koff | kon
1 | B1 | 255 nM | 0.000226 s⁻¹ | 886 M⁻¹ s⁻¹
2 | B2 | 36 nM | 0.00115 s⁻¹ | 32000 M⁻¹ s⁻¹
